Experimental data published in patent US20050037339A1 (published 2005).

Key:
BoNT-A C-fragment [1] = target: T1, BoNT-A C-fragment (UniProt P0DPI0 871-1296); assay: SPR (BIAcore), purified scFv
BoNT-A C-fragment [2] = target: T1, BoNT-A C-fragment; assay: SPR (BIAcore), purified scFv; Kd calculated as koff/kon

T1 sequence (P0DPI0 871-1296): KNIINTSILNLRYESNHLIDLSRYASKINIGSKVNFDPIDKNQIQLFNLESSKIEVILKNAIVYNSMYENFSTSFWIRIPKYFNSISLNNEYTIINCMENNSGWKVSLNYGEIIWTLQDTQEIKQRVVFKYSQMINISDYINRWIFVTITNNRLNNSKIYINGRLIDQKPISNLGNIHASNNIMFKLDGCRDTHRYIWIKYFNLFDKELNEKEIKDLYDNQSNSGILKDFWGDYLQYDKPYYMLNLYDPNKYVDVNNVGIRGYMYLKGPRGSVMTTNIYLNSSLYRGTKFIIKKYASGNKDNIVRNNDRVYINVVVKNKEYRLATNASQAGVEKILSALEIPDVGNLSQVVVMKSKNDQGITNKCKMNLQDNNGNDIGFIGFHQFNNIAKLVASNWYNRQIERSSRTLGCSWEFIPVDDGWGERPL

B1: anti-BoNT-A scFv 2B6 (scFv)
chain: VKLVESGPGLVKPSQSLSLTCTVTGYSITSDYAWNWIRQFPGNKLEWMGYINYDGSNNYNPSLKNRISITRDTSKNQFFLKLNSVTSEDTATYYCARAGDGYYVDWYFDVWGTGTTVIVSSGGGGSGGGGSGGGGSYIELTQSPASLAVSLGQRATTSCRASESVDSYGNSFMHWYQQKPGQPPKLLIYLASNLESGVPARFSGSGSRTDFTLTIDPVEADDAATYYCQQNNEDPYTFGGGTKLEIKS
- koff (BoNT-A C-fragment [1]): 0.0078 s⁻¹
- kon (BoNT-A C-fragment [1]): 110000 M⁻¹ s⁻¹
- Kd (BoNT-A C-fragment [2]): 71.5 nM
